Assay results reported in patent KR20120084755A.

Target: RSV A2 바이러스의 F 단백질 (Respiratory Syncytial Virus (RSV), strain A2) (UniProt P03420)
Assay: cell-based or functional assay

Sequence of UniProt P03420 (P03420 26-574): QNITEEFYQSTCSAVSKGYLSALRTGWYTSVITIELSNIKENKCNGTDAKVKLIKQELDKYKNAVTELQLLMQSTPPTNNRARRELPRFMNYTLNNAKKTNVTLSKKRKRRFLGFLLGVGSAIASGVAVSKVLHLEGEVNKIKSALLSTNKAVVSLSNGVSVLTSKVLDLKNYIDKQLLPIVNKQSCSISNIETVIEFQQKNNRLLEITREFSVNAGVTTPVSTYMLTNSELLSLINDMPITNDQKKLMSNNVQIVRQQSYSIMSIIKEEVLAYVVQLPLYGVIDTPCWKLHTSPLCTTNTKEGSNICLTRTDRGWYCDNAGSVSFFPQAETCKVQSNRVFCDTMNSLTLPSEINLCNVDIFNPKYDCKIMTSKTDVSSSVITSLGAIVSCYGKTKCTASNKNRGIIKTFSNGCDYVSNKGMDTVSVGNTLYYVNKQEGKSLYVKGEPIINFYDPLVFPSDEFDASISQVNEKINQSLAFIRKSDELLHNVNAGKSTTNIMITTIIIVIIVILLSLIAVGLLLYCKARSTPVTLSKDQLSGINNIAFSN

Row | Substance | IC50, RSV A2 neutralisation on HEp2 cells (standard TCID50 culture assay) [ng/㎖]
1 | AM23 (antibody) | 4.18
2 | 팔리비주마브(Palivizumab) (antibody) | 152
3 | AM16 (antibody) | 78.7
4 | D25 (antibody) | 1.28
